Measurements from patent publication US20070036810A1, “Cyclic amp response element activator proteins and uses related thereto” (priority 2003, published 2007).
“Also recorded” adds a separate entry of the source.

B1: K1: CREAP1 fragment, amino acids 1-170, SEQ ID NO 32, Flag fusion (protein)
chain: MATSNNPRKFSEKIALHNQKQAEETAAFEEVMKDLSLTRAARLQLQKSQYLQLGPSRGQYYGGSLPNVNQIGSGTMDLPFQPSGFLGEALAAAPVSLTPFQSSGLDTSRTTRHHGLVDRVYRERGRLGSPHRRPLSVDKHGRQADSCPYGTMYLSPPADTSWRRTNSDSA
modifications: Flag tag; human
B2: MAP3K11: Mitogen-Activated Protein Kinase Kinase Kinase 11 expression construct, AP-1 activator (protein, UniProt Q16584 1-847, looked up)
Mitogen-activated protein …: MEPLKSLFLKSPLGSWNGSGSGGGGGGGGGRPEGSPKAAGYANPVWTALFDYEPSGQDELALRKGDRVEVLSRDAAISGDEGWWAGQVGGQVGIFPSNYVSRGGGPPPCEVASFQELRLEEVIGIGGFGKVYRGSWRGELVAVKAARQDPDEDISVTAESVRQEARLFAMLAHPNIIALKAVCLEEPNLCLVMEYAAGGPLSRALAGRRVPPHVLVNWAVQIARGMHYLHCEALVPVIHRDLKSNNILLLQPIESDDMEHKTLKITDFGLAREWHKTTQMSAAGTYAWMAPEVIKASTFSKGSDVWSFGVLLWELLTGEVPYRGIDCLAVAYGVAVNKLTLPIPSTCPEPFAQLMADCWAQDPHRRPDFASILQQLEALEAQVLREMPRDSFHSMQEGWKREIQGLFDELRAKEKELLSREEELTRAAREQRSQAEQLRRREHLLAQWELEVFERELTLLLQQVDRERPHVRRRRGTFKRSKLRARDGGERISMPLDFKHRITVQASPGLDRRRNVFEVGPGDSPTFPRFRAIQLEPAEPGQAWGRQSPRRLEDSSNGERRACWAWGPSSPKPGEAQNGRRRSRMDEATWYLDSDDSSPLGSPSTPPALNGNPPRPSLEPEEPKRPVPAERGSSSGTPKLIQRALLRGTALLASLGLGRDLQPPGGPGRERGESPTTPPTPTPAPCPTEPPPSPLICFSLKTPDSPPTPAPLLLDLGIPVGQRSAKSPRREEEPRGGTVSPPPGTSRSAPGTPGTPRSPPLGLISRPRPSPLRSRIDPWSFVSAGPRPSPLPSPQPAPRRAPWTLFPDSDPFWDSPPANPFQGGPQDCRAQTKDMGAQAPWVPEAGP

Legend:
endogenous CREB1 = molecular target: T1, endogenous CREB1 (Homo sapiens, UniProt P16220); assay: Immuno-precipitation of FLAG-tagged CREAP1 variants and Western blot against CREB in HEK293 cells; assay type: binding; conditions: M2-agarose immuno-precipitation, Western blot against CREB
T1 construct: endogenous in cells; host or cells: HEK293
Experimental: To determine if CREAP1 can interact directly with CREB, K1 and K5 variants of CREAP1 (see Table 1) were transfected into HEK293 cell grown in 100 mm dishes (Falcon) using Fugene6 reagent (Roche Applied Science) according to the protocol provided by the manufacturer. 40 hours after transfection, cells were scraped from the plates in PBS and lysed in 800 μl of Low Stringency buffer containing: 10 mM HEPES pH 7.6, 250 mM NaCl, 5 mM EDTA, 1 mM DTT, 0.1% NP-40 and freshly dissolved protease inhibitors. Immuno-precipitation was carried out using M2-agarose beads (Sigma). Precipitated proteins were separated on 4-20% of SDS-PAGE (Invitrogen) and transferred to nitrocellulose membrane (Invitrogen). Western blot were performed using antibody against CREB (Cell Signaling Technology). As a negative control expression construct encoding FLAG-tagged human histone deacetylase 1 (HDAC1) was used.

[1] = tested on: pCRE-Luc reporter (cyclic AMP response element); assay: pCRE-Luc reporter assay of CREAP1 deletion fragments in Hela cells; assay type: cell-based; conditions: Flag-CREAP1 deletion constructs co-transfected with pCRE-Luc in Hela cells; Dual-Glo Luciferase 40 hrs after transfection
Experimental: CREAP1 protein amino acids 1-170, 1-356, […], 1-580 and 170-650 are inserted into pFlag-CMV4 expression vector (Sigma, St. Louis, Mo.) by utilizing PCR strategy familiar to one of skill in the art. 10^4 Hela cells are split into each well of 96 well tissue culture plates. Cells are transfected 16 hours later with 100 ng of pCRE-Luc reporter construct, 30 ng of Renilla luciferase control plasmid together with 100 ng of pCMVSPORT6, pCMVSPORT-CREAP1 and different Flag-CREAP1 deletion fusion constructs respectively. Transfection is done with Fugene6 reagent (Roche Applied Biosciences) following the manufacturer's instructions. A Dual-Glo Luciferase assay (Promega) is conducted 40 hrs after transfection. Firefly luciferase counts are normalized to Renilla luciferase and plotted.
To dissect the functional domains within the CREAP1 molecule, CREAP1 protein fragments of amino acids 1-170, 1-356, 1-494, 1-580 and 170-650 were subcloned into pFlag-CMV4 vector by utilizing PCR based strategy and tested for function in a Dual Glo Luciferase assay as described above.

[2] = tested on: secreted IL-8 protein from HeLa cells; assay: IL-8 Elisa assay in HeLa cells; assay type: cell-based; conditions: after transfection
Experimental: HeLa cells are transfected with DNA samples selected from the group of sequence verified and confirmed hits at 100 ng per well in 96 well plates (Costar) using the protocol described above. DNA samples designated as co-activators are co-transfected at 25 ng per well. Empty vector pCMV-Sport6 is used as a negative control. 72 hours post-transfection IL-8 content is measured in the cell growth media in prediluted aliquots corresponding to 1 to 5 μl of conditioned growth media using an IL-8 Elisa kit (Sigma) following the provided protocol. As a positive control, growth media is collected from the cells transfected with empty vector and treated with IL-1β and TNFα (R&D Systems) at 5 ng/ml and 50 ng/ml respectively for 16 hours prior to collection of the growth media for the IL-8 assay.

[3] = tested on: CRE-like element of IL-8 promoter (pCREL-Luc); assay: pCREL-Luc reporter (concatamerized CRE-like site) assay; assay type: cell-based; conditions: minimal promoter carrying concatamerized CRE-like site; data not shown
Source text: The pIL-8Luc reporter was constructed by insertion of the −1491 to +43 region of the human IL-8 gene into pGL3Basic vector (Promega, Inc). PCR was used to generate a wild type minimal IL-8 promoter as well as point mutants. Mutations in AP-1, C/EBP, NF-κB were as described by Wu et al. (Wu et al. J. Biol. Chem., 272:2396-2403 (1997)). The sequence of a putative CRE-like site TGACATAA was mutated to TCGATCAA. Promoter constructs carrying 6 concatamerised copies of CRE-like response element (pCREL-Luc) or 5 copies of CRE-like element TGACACAA found in human PEPCK and CAPL promoters (pCREL2-Luc) were prepared by ligating PCR amplified sequences into pTAL-Luc (BD Biosciences). All techniques were performed using conventional methods.
In order to determine if the “CRE-like element” was directly responsive to CREAP1 or MAP3K11, the ability of both genes to activate a minimal promoter carrying concatamerized CRE-like site (pCREL-Luc) was examined. In addition, we studied the effect of PMA known inducer of AP-1.

T1 sequence (P16220 whole entry): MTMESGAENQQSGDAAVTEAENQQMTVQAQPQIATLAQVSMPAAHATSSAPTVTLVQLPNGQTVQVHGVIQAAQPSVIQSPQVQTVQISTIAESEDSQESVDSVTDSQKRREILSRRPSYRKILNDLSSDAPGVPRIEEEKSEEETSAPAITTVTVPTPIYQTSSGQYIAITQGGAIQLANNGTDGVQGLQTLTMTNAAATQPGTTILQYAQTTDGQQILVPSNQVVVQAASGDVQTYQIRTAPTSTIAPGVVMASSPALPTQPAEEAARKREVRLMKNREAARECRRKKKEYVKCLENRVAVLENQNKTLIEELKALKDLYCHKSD

| Molecule | association with endogenous CREB1 (endogenous CREB1) | Activity [1] | accumulation of secreted IL-8 protein [2] | activation of pCREL-Luc [3] |
| --- | --- | --- | --- | --- |
| B1 | associated with endogenous CREB1 | not sufficient for its function; also recorded: Inactive |  |  |
| B2 |  |  | induced small increases | neither by MAP3K11 |
